Tests used:
[1] = biological target: T1, recombinant human IL-13 receptor alpha 2 (hIL-13-Rα2) (human, UniProt Q14627 27-343); experiment: competition ELISA on coated recombinant hIL-13-Rα2, competitor biotin-ch08
T1 construct: Recombinant soluble antigen coated on ELISA plates or used in Biacore; also called rec hIL-13Rα2; rhIL-13Rα2
T1 sequence (looked up): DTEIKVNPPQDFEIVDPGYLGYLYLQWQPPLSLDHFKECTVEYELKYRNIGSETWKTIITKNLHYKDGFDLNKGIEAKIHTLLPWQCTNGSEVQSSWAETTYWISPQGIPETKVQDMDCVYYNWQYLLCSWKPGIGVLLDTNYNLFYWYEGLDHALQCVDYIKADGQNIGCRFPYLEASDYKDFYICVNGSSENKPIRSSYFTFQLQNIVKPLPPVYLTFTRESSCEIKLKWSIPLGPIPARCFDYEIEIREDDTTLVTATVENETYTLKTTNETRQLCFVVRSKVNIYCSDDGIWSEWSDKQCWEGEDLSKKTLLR
Description: A competition ELISA was performed to assess whether hu08 1.0 and hu08 v1.1 compete with ch08 for IL-13-Rα2 binding. Recombinant hIL-13-Rα2 was coated onto 96-well plates at 50 ul of […] in PBS overnight at 4° C. Plates were then blocked and washed following standard ELISA protocol. A 3-fold serially diluted ch08, hu08 1.0 and hu08 v1.1, and negative control ch07 (2× final concentration) were mixed with biotinylated ch08 (2×EC₅₀). 50 μl of the antibody and biotin-ch08 mixture were added to the plate and incubated for 1 hour at room temperature. The amount of biotin-ch08 bound was detected by HRP conjugated streptavidin.

[2] = biological target: T2, cynomolgus monkey IL-13-Rα2 ECD/TM domain with C-terminal Flag tag, on transfected HEK293 cells (cynomolgus monkey, UniProt Q14627 27-363 (human entry)); experiment: FACS on HEK293 cells transfected with cyno-IL-13-Rα2 (given as ED50)
T2 construct: also called cyno-IL-13-Rα2; cyno IL-13Rα2; not shown: Flag tag at the C-terminal end
T2 chain: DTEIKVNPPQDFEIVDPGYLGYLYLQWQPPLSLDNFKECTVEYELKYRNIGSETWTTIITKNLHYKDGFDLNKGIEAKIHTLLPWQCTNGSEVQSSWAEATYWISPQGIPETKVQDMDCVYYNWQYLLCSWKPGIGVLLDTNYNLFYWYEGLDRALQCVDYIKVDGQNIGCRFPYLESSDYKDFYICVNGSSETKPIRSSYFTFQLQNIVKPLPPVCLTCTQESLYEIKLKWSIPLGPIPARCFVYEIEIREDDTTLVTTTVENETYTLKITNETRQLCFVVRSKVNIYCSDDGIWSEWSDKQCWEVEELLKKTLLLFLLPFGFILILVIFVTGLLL
Description: The ECD/TM domain of cyno IL-13-Rα2 fused with Flag tag at the C-terminal end was cloned into the pSMED2 expression vector. HEK293 suspension cells were transiently transfected with cyno-IL-13-Rα2 containing plasmid and pSMED2 vector (as a mock transfection). The cells were harvested 72 hours later and subjected to FACS analysis. 4 antibodies including ch07, ch08, hu08v1.0/1.0 and hu08v1.1/1.1 were tested. The binding on the cell surface cyno-IL-13-Rα2 was detected with R-Phycoerythrin-labeled goat anti-human or mouse IgG.

[3] = biological target: T1, recombinant human IL-13 receptor alpha …; experiment: direct ELISA on coated recombinant hIL-13-Rα2
Description: Humanized hu08 binding to recombinant hIL-13-Rα2 was evaluated by a standard direct ELISA. Recombinant hIL-13-Rα2 was coated onto a 96-well plate. Serially diluted chimeric antibodies or humanized antibodies in combinations of heavy and light chains of versions 1.0 and 1.1 e.g. hu08 v1.0 HC/1.0 LC, hu08 v1.0 HC/v1.1 LC, hu08 v1.1 HC/v1.0 LC, and hu08 v1.1 HC/v1.1 LC, were added to the plate and incubated at room temperature for 1-2 hours. The binding was detected by HRP conjugated goat anti-human Ig Kappa.

[4] = biological target: T1, recombinant human IL-13 receptor alpha …; experiment: SPR Biacore T100, pH 6.0
Description: (§1) To assess the binding kinetics of the ch07 and ch08 antibodies, SPR (Surface Plasmon Resonance) experiments were conducted on a Biacore® T100 or T200 instrument using a Biacore® human Fab Capture Kit (GE Healthcare). All data was analyzed using the Biacore® T100 evaluation software version 2.0 with a 1:1 Langmuir binding model.

[5] = biological target: T1, recombinant human IL-13 receptor alpha …; experiment: competition ELISA on hIL-13-Rα2, competitor biotinylated ch08
Description: The binding properties of the cysteine mutants to hIL-13-Rα2 were evaluated by a standard ELISA and a competition ELISA. […] This conclusion was confirmed by a competition ELISA with biotinylated ch08.

[6] = biological target: T1, recombinant human IL-13 receptor alpha …; experiment: SPR Biacore T100, pH 7.4 (column head prints nM; kd/ka gives M); pH 7.4
Description: as §1

[7] = biological target: T1, recombinant human IL-13 receptor alpha …; experiment: SPR Biacore T100, pH 7.4
Description: as §1

[8] = biological target: T1, recombinant human IL-13 receptor alpha …; experiment: standard ELISA on hIL-13-Rα2 (given as ED50)
[9] = biological target: T1, recombinant human IL-13 receptor alpha …; experiment: direct ELISA on rhIL-13Rα2 (given as ED50)
[10] = biological target: T1, recombinant human IL-13 receptor alpha …; experiment: competition ELISA on plate (recombinant IL-13-Rα2), competitor biotinylated ch07
[11] = biological target: T1, recombinant human IL-13 receptor alpha …; experiment: competition ELISA on plate, competitor biotinylated ch07, purified protein
[12] = biological target: T1, recombinant human IL-13 receptor alpha …; experiment: direct ELISA on rhIL-13Rα2, purified protein (given as ED50)
[13] = biological target: T3, IL-13 (UniProt P35225 35-146, limits assumed); experiment: competition ELISA: IL-13 captured on an anti-Flag coated plate, constant amounts of IL-13 and biotinylated IL-13Rα2-Fc (the competitor), detected with streptavidin-HRP
T3 construct: also called IL-13 cytokine
T3 sequence (P35225 35-146 limits assumed): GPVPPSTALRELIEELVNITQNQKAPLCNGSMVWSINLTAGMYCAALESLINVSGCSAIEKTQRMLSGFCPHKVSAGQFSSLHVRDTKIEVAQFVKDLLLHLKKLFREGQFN
Description: In order to assess whether ch07 and ch08 can neutralize IL-13 function, a competition ELISA was performed. An anti-Flag Ab was coated onto 96-well plates and incubated overnight at 4° C. Plates were then blocked and washed following standard ELISA protocol. […] 100 ul of the complex was added to the ELISA plate and incubated for 1 hour at room temperature. The amount of biotin-IL-13-Rα2 bound was detected by HRP conjugated streptavidin at 1:5000 for 1 hour.

B1: humanized antibody hu08 v1.1 HC/v1.1 LC (antibody, IgG1, V domains shown)
VH: EVQLVESGGGLVQPGGSLRLSCAASGFTFSRNGMSWVRQTPDKRLEWVATVSSGGSYIYYADSVKGRFTISRDNAKNSLYLQMSSLRAEDTAVYYCARQGTTALATRFFDVWGQGTLVTVSS
VL: DIQMTQSPSSLSASVGDRVTITCKASQDVGTAVAWYQQIPGKAPKLLIYSASYRSTGVPDRFSGSGSGTDFSFIISSLQPEDFATYYCQHHYSAPWTFGGGTKVEIK
notes: hIgG1 constant region and hIgKappa constant region; also called hu08 v1.1/1.1; hu08v1.1/1.1
[1]
  IC50: 3.16 nM
[2]
  EC50: 2.14 nM
[3]
  EC50: 0.198 nM

B2: humanized antibody hu08 v1.0 HC/v1.0 LC (antibody, IgG1)
heavy: not shown
light: DIQMTQSPSSLSASVGDRVTITCKASQDVGTAVAWYQQKPGKAPKLLIYSASYRSTGVPSRFSGSGSGTDFTLTISSLQPEDFATYYCQHHYSAPWTFGGGTKVEIKRTVAAPSVFIFPPSDEQLKSGTASVVCLLNNFYPREAKVQWKVDNALQSGNSQESVTEQDSKDSTYSLSSTLTLSKADYEKHKVYACEVTHQGLSSPVTKSFNRGEC
notes: Humanized IgG1/kappa; also called hu08 v1.0/1.0; hu08v1.0/1.0
[4]
  koff: 0.000234 s⁻¹
  kon: 52900 M⁻¹ s⁻¹
[1]
  IC50: 2.12 nM
[5]
  IC50: 2.01 nM
[6]
  Kd: 2.52 nM
[2]
  EC50: 1.96 nM
[3]
  EC50: 0.175 nM
[7]
  koff: 0.000246 s⁻¹
  kon: 97500 M⁻¹ s⁻¹
[8]
  EC50: 0.11 nM

B3: hu07 heavy chain v1.5 / light chain v1.0 (antibody, IgG1, V domains shown)
VH: EVQLVESGGGLVQPGGSLRLSCAASGFSLTKYGVHWVRQAPGKGLEWVGVKWAGGSTDYNSALMSRFTISKDNAKNSLYLQMNSLRAEDTAVYYCARDHRDAMDYWGQGTLVTVSS
VL: DIQMTQSPSSLSASVGDRVTITCTASLSVSSTYLHWYQQKPGKAPKLLIYSTSNLASGVPSRFSGSGSGTDFTLTISSLQPEDFATYYCHQYHRSPLTFGGGTKVEIK
notes: hIgG1 constant region and hIg Kappa constant region; also called hu07v1.5/v1.0
[9]
  EC50: 0.754 nM
[10]
  IC50: 62 nM

B4: humanized antibody hu07 heavy chain v1.5 / light chain v1.7 (antibody, IgG1, V domains shown)
VH: EVQLVESGGGLVQPGGSLRLSCAASGFSLTKYGVHWVRQAPGKGLEWVGVKWAGGSTDYNSALMSRFTISKDNAKNSLYLQMNSLRAEDTAVYYCARDHRDAMDYWGQGTLVTVSS
VL: DIQMTQSPSSLSASVGDRVTITCTASLSVSSTYLHWYQQKPGSSPKLWIYSTSNLASGVPSRFSGSGSGTSYTLTISSLQPEDFATYYCHQYHRSPLTFGGGTKVEIK
notes: hIgG1/kappa; also called hu07Hv1.5/kv1.7
[11]
  IC50: 7.7 nM
[12]
  EC50: 0.39 nM

B5: naked IL-13Rα2 (positive control competitor) (receptor, not shown: a dimerising Fc or GST; large carriers; small tags and cut ends)
chain: DTEIKVNPPQDFEIVDPGYLGYLYLQWQPPLSLDHFKECTVEYELKYRNIGSETWKTIITKNLHYKDGFDLNKGIEAKIHTLLPWQCTNGSEVQSSWAETTYWISPQGIPETKVQDMDCVYYNWQYLLCSWKPGIGVLLDTNYNLFYWYEGLDHALQCVDYIKADGQNIGCRFPYLEASDYKDFYICVNGSSENKPIRSSYFTFQLQNIVKPLPPVYLTFTRESSCEIKLKWSIPLGPIPARCFDYEIEIREDDTTLVTATVENETYTLKTTNETRQLCFVVRSKVNIYCSDDGIWSEWSDKQCWEGEDLSKKTLLR
[13]
  IC50 (read off the curve): ~0.1 nM
